{"source": "the nanobody polyreactivity screen of Harvey et al. (2022)", "data": [{"assay": "yeast display, Sf9 membrane polyspecificity reagent, FACS + sequencing; frameworks hold sequencing errors", "how_it_was_run": "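A synthetic nanobody library was expressed on Saccharomyces cerevisiae BJ5465 by galactose induction for 36–48 hours. The library was stained for 1 hour at 4 °C with 10% biotinylated, detergent-solubilized Sf9 membrane reagent and enriched with streptavidin microbeads before FACS. Low and high (top ~1%) gates were set on anti-HA fluorescence for expression and streptavidin fluorescence for reagent binding, and each polyreactivity label reflects the gate of origin.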", "values": [{"sequence": "QVQLEESGGGLVKARGSLRITCAASGSTFDYYTMGWYRQAPGKERELFAAINSSGGRTYYADSVKGRFTISRDTAKNTVYLQMNSLIPEDTAVYDCAAVTLCLGRYPYTYTSRYEYWGLGTQVTVSS", "polyreactivity (PSR sort gate)": "high polyreactivity"}, {"sequence": "QVQLVESGGGLVQAGGSLRLSCAASGFIFVRNAMGWYRQAPGKERELVAAITGRGGRTYYADSVKGRFTISRDNAKNTVYLQMNSLKPEDTAVYYCAKDSPDDHFGYWGQGTQVTVSS", "polyreactivity (PSR sort gate)": "high polyreactivity"}, {"sequence": "QVQLVESGGGLVQAGGSLRLSCAASGFTIYYYAMGWYRQAPGKERELVASITSGGSTYYADSVKGRFTISRDNAKNTVYLQMNSLKPEDTAVYYCAKTRFHSKEGDYWGQGTQVTVSS", "polyreactivity (PSR sort gate)": "low polyreactivity"}, {"sequence": "QVQLVESGGGLVQAGGRLRLSCAASGSIFVIYGMGWYRQAPGKERELVAAISDRGGSTYYADSVKGRFTISRDNAKNTVYLQMNSLKPEDTAVYYCAADRQYRYATRYDYWGQGTQVTVSS", "polyreactivity (PSR sort gate)": "low polyreactivity"}, {"sequence": "QVQLLESGGGLVQAGGSLRLSCAASGITFAKYAMGWYRQAPGKEREFVAAISTSGGSTYYADSVKGRFTISRDNAKNTVYLQMNSLKPEDTAVYYSNVETYIWYFLRYYNYWGQGTQVTVSS", "polyreactivity (PSR sort gate)": "high polyreactivity"}, {"sequence": "QVQLVESGGGLVQAGGSLRLSCAASGSIFGTNAMGGYRQAPGKETELVADISGSGGTTYYADSVKGRFTISRDNAKNTVDLQMNSLKPEDTAVYYCAAKGRAGYGYTAYANDYGGQGTQVTVSS", "polyreactivity (PSR sort gate)": "low polyreactivity"}, {"sequence": "QVQLGESGGGLLQAGGSHSLICADSGSTIRPNAMGWYTQAPGKERELVATIRGGGTSTYYADSVKGRFTISRDNAKNTVYLQLNSLKPEDTAVYYCAARGFYTGSYPGYYYWGQGTQVTVSS", "polyreactivity (PSR sort gate)": "high polyreactivity"}, {"sequence": "QVQLVESGGGLVQAGGSLRLSCAASGRTFKRYAMGWYRQAPGKERELVAVITSGGSTYYADSVKGRFTISRDNAKNTVYLQMNSLKPEDTAVYYCAARYGVRIWHDALYGYWGQGTQVTVSS", "polyreactivity (PSR sort gate)": "high polyreactivity"}, {"sequence": "QVQLVESGGGLVQAGGSLRLSCAASGNTFYSYAMGWYRQAPGKERELVAAITWGGRRKFADSVKGRFTSSRDNAKITVYLQMNSLKPEDTAVYYCAARLFHGKTKFDYSGQGTQVTVSS", "polyreactivity (PSR sort gate)": "high polyreactivity"}, {"sequence": "QVQLVESGGGLVQAGGSLRLSCAASGRTFNSNAMGWYRQAPGKERELVAAISGRTGRTYYADSVKGRFTISRDNAKNTVYLQMNSLKPEDTAVYYCATGTYAAAQGTRYYYWGQGTQVTVSS", "polyreactivity (PSR sort gate)": "high polyreactivity"}, {"sequence": "QVQLVESGGGLVQAGGSLRLSCAASGRTSLYYAMGWYRQAPGKEREFVATITSGGSTNYADSVKGRFTISRDNAKNTVYLQMNSLKPEDTALYYCNARWRRGKTRYGYWGQGTQVNVSS", "polyreactivity (PSR sort gate)": "high polyreactivity"}, {"sequence": "QVQLVESAGGLVQAGGSLRLSCAASGSTLRAYAMGWYRQAPGKERELVAAISGSGDSTYYADSVKGRFTISRDNAKNTVYLQMNSLKPEDTAVYYCNKGLFSTGNIPYYLIVYLEYNYWGQGTQVTVSS", "polyreactivity (PSR sort gate)": "low polyreactivity"}, {"sequence": "QVQLVESGGGIVQAGGSLRLSCAASGSTFFDNAMGWYRQAPGKERDLVAAISLTDGITYDADSVKGRFTISRDNAKNTVYLQMNSLKPEDTAVYYCNAVYDWSLDQVWDYFEYEYWGQGSQVTVSS", "polyreactivity (PSR sort gate)": "high polyreactivity"}, {"sequence": "QVQLVESGGGLVQAGGSLRLSCAASGITIKYYTMGWYRQAPGKERELVAAISRSGGSTYYADSVKGRFTISRDNAKNTVYLQMNSLIPEDTAVYYCAAERGAYRGVTFTYGYWGQGTQVTVSS", "polyreactivity (PSR sort gate)": "high polyreactivity"}, {"sequence": "QVQLVESGGGLVQAGGSLRLSCAASGRTFWSYAMGWYRQAPGKEREFVAAISRRGGITYYADSVKGRFTISRDNAKNTVYLQMNSLKPEDTAVYYCAALPASVRRPGWHDYWGQGTQVTVSS", "polyreactivity (PSR sort gate)": "high polyreactivity"}, {"sequence": "QVQLVESGGGLVQAGGSLRLSCAASGFIFVIYAMGWYRQAPGKERELVARISFRSGRTYYADSVKGRFTISRDNAKNTVYLQMNSLKPEDTAVYYCNAVLYGQYKYDYWGQGTQVTVSS", "polyreactivity (PSR sort gate)": "high polyreactivity"}, {"sequence": "QVQLVESGGGLVQAGGSLRLICAASGIIFGNNAMGRYRQAPGKERELVAAIRWSTGTTYYADSVKGRFTISRDNATNTVYLQMNSLKPEDTAVYYCAARLRREYGYWGQGTQVTVSS", "polyreactivity (PSR sort gate)": "high polyreactivity"}, {"sequence": "QVQLVESGGGLVQAGGSLRLSCAASGRTSTIYTMGWYRQAPGKESEFVASISAGAGTYYADSVKGRFTISRDNAKNTVYLQMNSLKPEDTAVYYCNASVYWRSTRRHQMDYWGQGTQVTVSS", "polyreactivity (PSR sort gate)": "high polyreactivity"}, {"sequence": "QVQLLESGGGLVQAGGSLRLSCAASGSTFDSYEMGWYRQAPGKERELVAGISYSSDRTYYADSVKGRFTISRDNAKNTVYLQMNSLKPEDTAVYYCAKDHTGTVQYPLDYWGQGTQVTVSS", "polyreactivity (PSR sort gate)": "low polyreactivity"}, {"sequence": "QVQLVESGGGLVQAGGSLRLSCAASGSTFVYNAMGWYRQAPGKERELVAAISRRGTSTYYADSVKGRFTISRDNAKNTVYLQMNSLKPEDTAVYYCAASQLSRSGQYRRDYWGQGTQVTVSS", "polyreactivity (PSR sort gate)": "high polyreactivity"}, {"sequence": "QVQLVESGGGLVQAGGSLRLSCAASGRIFYAYAMGWYRQAPGTERELVAAISSGGSTKYADSVKGRFTISRDNAKNTVYLQMNSLKPEDTAVYYCNADATAQSFGSLFDYWGLGTQVTVSS", "polyreactivity (PSR sort gate)": "low polyreactivity"}, {"sequence": "QVQLVESGGGLVQAGGSLRLSCAASGSTFTYNAMGWYRPAPGKERELVAAISYGGGRTYYADSVKGRFTISRDNAKNTVYLQMNSLKPEDTAVYYCAAGRSIGALYYGMDYWGQGTQVTVSS", "polyreactivity (PSR sort gate)": "high polyreactivity"}, {"sequence": "QVQLVESGGGLVQAGGSLRLSCAASGFTFFLYAMGWYRQAPGKEMELVAAIHSRGGSTYYADSVKGRFTISRDNAKNTVSLQMNSLKPEDTAVYYCAAYIPRSSWGYDYWGQGTQVTVSS", "polyreactivity (PSR sort gate)": "high polyreactivity"}, {"sequence": "QVQLVESGGGLVQAGGILRLSCAASGFTFTRNAKGRYRQAPGKERELVAAISSGGRTYYADSVKGRFTISRDNAKNTVYLQMNSLKPEDTAVYYCPTTIWGPVEGYDYWGQGTQETVSS", "polyreactivity (PSR sort gate)": "high polyreactivity"}, {"sequence": "QVQLVETGGGIVQAGGSLRLSCASSGRTFNKYAMGRYRKAPGKERELVAAINYSGGRTDYADSVKGRFTISRDNAKNTVYLQMNSLKPDDTAVYYCAASPTFFVWQGYNYWGQGTQVTVSS", "polyreactivity (PSR sort gate)": "low polyreactivity"}, {"sequence": "QVQLVESCGGLVQAGGSLRLSCAASGLIFWKYAMGWYRQAPGKERELVAAITSGGSTNYADSVKGRFTISRDNAKNTVYLQMNSLKPEDTAVYYCNARSWFEYYWGQGTQVTVSS", "polyreactivity (PSR sort gate)": "high polyreactivity"}, {"sequence": "QVQLVESGGGLVQAGGSLRLSCAASGSIFVRNAMGWYRQSPGKERELVAAITSGDSTNYADSVKGRFTISRDNAKNTVYLQMYCLKPEDTAVYYCNAQIYSVYRDGRDIYKYDYWGQGTQVTVSS", "polyreactivity (PSR sort gate)": "low polyreactivity"}, {"sequence": "QFQLVESGGGLVQAGGSLRLSCAASGRTFYLYAMGWYRQAPGKERELVASISWNGGSTYYADSVKGLFTISRDNAKNYVYLQMNSLKPEDTAVYYCATDSHRSRLNRPYQLFPAYYYWGQGTQVTVSS", "polyreactivity (PSR sort gate)": "low polyreactivity"}, {"sequence": "QVQLVESGGGLVQAGGSLRLSCDASGIIFRGNSMGWYRQAPGKERELVAAISRSGRTNYADSVKGSFTISRDNAKNTVYLQMYSLKPEDTAVYYCAVDKRYGRVFGRDYDYWGQGTQVTESS", "polyreactivity (PSR sort gate)": "high polyreactivity"}, {"sequence": "QVQLVESGGGLVQAGGTLRLSSAPTGSNFSAYAKGWYREAPGKERELVAAISTSGYTNYADSVKGRFTISRDKALNTVYLQMNSLKPEDTAVSYCAADRDYGDGTAGYGYEFDYWGQGTQVTVSS", "polyreactivity (PSR sort gate)": "low polyreactivity"}, {"sequence": "QVQLVESGGGLVQGGGSLRLSCAASGSIFSDYAMGWYRQAPGKEREFVAPITWSGTSTYYADSVKGRFTISRYNAKNTVYLQMNSLKPEDTAGDYSAADLLFWLGLVPGTIYDEFDYWGQGTQVTVAS", "polyreactivity (PSR sort gate)": "low polyreactivity"}]}]}
